B1: BBS7, in vitro translated, tagged with a 6xMyc epitope [not stated] / GST-SMO^H8 (GST fused to the first 19 amino acids of SMO^Ctail, aa 543–559) [mouse] (parent complex)
chain 1: MDLILNRMDYLQVGVTSQKTMKLIPASRHRATQKVVIGDHDGVVMCFGMKKGEAAAVFKTLPGPKIARLELGGVINTPQEKIFIAAASEIRGFTKRGKQFLSFETNLTESIKAMHISGSDLFLSASYIYNHYCDCKDQHYYLSGDKINDVICLPVERLSRITPVLACQDRVLRVLQGSDVMYAVEVPGPPTVLALHNGNGGDSGEDLLFGTSDGKLALIQITTSKPVRKWEIQNEKKRGGILCIDSFDIVGDGVKDLLVGRDDGMVEVYSFDNANEPVLRFDQMLSESVTSIQGGCVGKDSYDEIVVSTYSGWVTGLTTEPIHKESGPGEELKINQEMQNKISSLRNELEHLQYKVLQERENYQQSSQSSKAKSAVPSFGINDKFTLNKDDASYSLILEVQTAIDNVLIQSDVPIDLLDVDKNSAVVSFSSCDSESNDNFLLATYRCQADTTRLELKIRSIEGQYGTLQAYVTPRIQPKTCQVRQYHIKPLSLHQRTHFIDHDRPMNTLTLTGQFSFAEVHSWVVFCLPEVPEKPPAGECVTFYFQNTFLDTQLESTYRKGEGVFKSDNISTISILKDVLSKEATKRKINLNISYEINEVSVKHTLKLIHPKLEYQLLLAKKVQLIDALKELQIHEGNTNFLIPEYHCILEEADHLQEEYKKQPAHLERLYG
chain 2: KATLLIWRRTWCRLTGH

Variants of: B1
Assay: GST capture assay (pull-down) of in vitro translated Myc-BBS7, quantified from anti-Myc blot; parent: 4.4; read off a plot

response	Variant
~4.9 ‰	chain 2 KATLLIWRRTWARLTGH
~0.12 ‰	chain 2 KATLLIAARTAARLTGH
~0.85 ‰	chain 2 KATLLIARRTWCRLTGH
~1.3 ‰	chain 2 KATLLIWARTWCRLTGH
~0.28 ‰	chain 2 KATLLIARRTACRLTGH
~0.9 ‰	chain 2 KATLLIWARTWARLTGH
~3.6 ‰	chain 2 KATLLIWRRTACRLTGH
